Data set [1] concerns Saccharomyces cerevisiae. Put plainly: protein stability index of tFT-peptide fusion (C-terminal peptide) (PSI (0-1 scale)); higher = more stable (slower turnover). How it is done: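 MPS profiling in S. cerevisiae of the tFT-X12 degron library: putative degron peptides plus stable controls, 12 aa, fused to the C-terminus of a sfGFP-mCherry timer. Cells are FACS-sorted into 8 mCherry/sfGFP bins and deep-sequenced. PSI runs from 0 (unstable) to 1 (stable). Backgrounds are wild type, das1Δ and doa10Δ at 30 °C, and wild type, das1Δ, cdc34-1 and cdc53-1 at 37 °C; 2-3 technical replicates each.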

In data set [2] the test system is Saccharomyces cerevisiae. The data set is described as above. The note with it: genetic background: wild type; temperature: 30 C.

± gives the standard deviation of the averaged measurements.
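Note: PSI is a weighted mean of sequencing reads over stability bins, variants kept only with over 10 reads, mCherry proximal and sfGFP distal, peptide attached via GGGS linker.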

With TFCVLLQFCVLV, the protein stability index in the data set on Saccharomyces cerevisiae [1] (genetic background: cdc34-1, temperature: 37 C) was found to be 0.365 ± 0.039; in the data set on Saccharomyces cerevisiae [1] (genetic background: cdc53-1, temperature: 37 C), 0.398 ± 0.017; in the data set on Saccharomyces cerevisiae [1] (genetic background: das1 deletion, temperature: 30 C), 0.308 ± 0.028; in the data set on Saccharomyces cerevisiae [1] (genetic background: das1 deletion, temperature: 37 C) it was 0.426 ± 0.02; in the data set on Saccharomyces cerevisiae [1] (genetic background: doa10 deletion, temperature: 30 C), 0.3058 ± 0.0007; in the data set with Saccharomyces cerevisiae [1] (genetic background: wild type, temperature: 30 C), 0.315 ± 0.012. Also, the protein stability index with Saccharomyces cerevisiae [1] (genetic background: wild type, temperature: 37 C) came to 0.411 ± 0.0012.
Turning to WSVAVVWDALFG, the protein stability index with Saccharomyces cerevisiae [2] came out at 0.699 ± 0.04.
Consider WTFVRTPERSEI, for which the protein stability index in the data set on Saccharomyces cerevisiae [2] came out at 0.719 ± 0.0089.
In the case of WTIVEALPRGVV, the protein stability index in the data set with Saccharomyces cerevisiae [2] is 0.679 ± 0.046.
WTTWAYFSDPTS had a protein stability index in the data set on Saccharomyces cerevisiae [2] of 0.621 ± 0.021.
In the data set with Saccharomyces cerevisiae [2], WVGCALEQGGAV came in with a protein stability index of 0.71 ± 0.0019.
For the sequence WVGPGGAVENKV, the protein stability index in the data set with Saccharomyces cerevisiae [2] worked out at 0.7013 ± 0.0032.
As for WVKTLEKEDHVI, in the data set on Saccharomyces cerevisiae [2], the protein stability index was found to be 0.759 ± 0.21.
For WVPLGVVGWFGG, the protein stability index in the data set with Saccharomyces cerevisiae [2] was 0.659 ± 0.038.
WVRDDEYTLIFL returned a protein stability index in the data set on Saccharomyces cerevisiae [2] of 0.712 ± 0.035.
The sequence WVTGASRLVGRE registered a protein stability index in the data set on Saccharomyces cerevisiae [2] of 0.766 ± 0.13.
Consider WVWAIDYEGLLW, for which, in the data set with Saccharomyces cerevisiae [2], the protein stability index was determined as 0.699 ± 0.054.
WVWGVLGAVWFG had a protein stability index in the data set on Saccharomyces cerevisiae [2] of 0.632 ± 0.0091.
Regarding WYTPDCLHCGPA, the protein stability index with Saccharomyces cerevisiae [2] turned out to be 0.688 ± 0.013.
Regarding YAAGGPLLLCNQ, the protein stability index with Saccharomyces cerevisiae [2] was determined as 0.66 ± 0.021.
With YAGGLWEGYRHW, the protein stability index in the data set on Saccharomyces cerevisiae [2] is 0.636 ± 0.063.
Consider YCALVSVGVVGG, for which the protein stability index in the data set on Saccharomyces cerevisiae [2] came out at 0.542 ± 0.0036.
In the data set with Saccharomyces cerevisiae [2], YCFRFGLLIFGD came in with a protein stability index of 0.548 ± 0.01.
On to YCGGRGGGWEIG, for which, in the data set with Saccharomyces cerevisiae [2], the protein stability index worked out at 0.682 ± 0.027.
Same read-out and setting: with YCNLSFKINREW the figure was 0.696 ± 0.12; with YCRQVSYERPTK, 0.743 ± 0.077; with YEACQTGASICR, 0.7125 ± 0.0013.
Sequence YEGARAPAGGEK displayed a protein stability index in the data set with Saccharomyces cerevisiae [2] of 0.689 ± 0.034.
Sequence YERKGRQVGGRT registered a protein stability index in the data set on Saccharomyces cerevisiae [2] of 0.592 ± 0.048.
On the same count and under the same terms, with YFAASFMSSSGI the figure was 0.76 ± 0.078; with YFALPPSAHRHQ, 0.693 ± 0.059.
The sequence YFPSSTLPPPVP registered a protein stability index in the data set with Saccharomyces cerevisiae [2] of 0.675 ± 0.029.
Turning to YFTARLLFFGYI, the protein stability index in the data set with Saccharomyces cerevisiae [2] is 0.725 ± 0.1.
In the case of YGGFLHALAMGG, the protein stability index with Saccharomyces cerevisiae [2] is 0.677 ± 0.0014.
In the data set with Saccharomyces cerevisiae [2], YGLAGFLWGCGE showed a protein stability index of 0.799 ± 0.051.
Turning to YGRRPGSRGDEH, the protein stability index in the data set with Saccharomyces cerevisiae [2] is 0.699 ± 0.025.
Still for that read-out and setting: with YGSRWRPYLGFR the figure was 0.669 ± 0.028.
In the data set on Saccharomyces cerevisiae [2], YGTLCPLNGCGI registered a protein stability index of 0.633 ± 0.068.
As for YGWGVWFIGLGG, the protein stability index in the data set on Saccharomyces cerevisiae [2] stood at 0.794 ± 0.095.
The sequence YIDLVEGECNKK had a protein stability index in the data set with Saccharomyces cerevisiae [2] of 0.685 ± 0.046.
YILSSFWTEVDS yielded a protein stability index in the data set on Saccharomyces cerevisiae [2] of 0.703 ± 0.093.
Consider YKTCKEKKITNR, for which, in the data set with Saccharomyces cerevisiae [2], the protein stability index was determined as 0.704 ± 0.014.
Sequence YLCRLHLGGLSS had a protein stability index in the data set with Saccharomyces cerevisiae [2] of 0.602 ± 0.0075.
Consider YLEDRGTSGSVQ, for which the protein stability index in the data set on Saccharomyces cerevisiae [2] came out at 0.676 ± 0.054.
YLSRIFPSLLFL came in with a protein stability index in the data set with Saccharomyces cerevisiae [2] of 0.6 ± 0.03.
Consider YLSSTVVRSMLF, for which, in the data set with Saccharomyces cerevisiae [2], the protein stability index was 0.644 ± 0.014.
YLVHEIGDMTYM had a protein stability index in the data set with Saccharomyces cerevisiae [2] of 0.739 ± 0.079.
As for YLVSYLSLFLSF, the protein stability index in the data set on Saccharomyces cerevisiae [2] is 0.504 ± 0.029.
In the case of YNGNSHQTHRHP, the protein stability index with Saccharomyces cerevisiae [2] came out at 0.74 ± 0.022.
Turning to YNGVGGLKPEPC, the protein stability index in the data set with Saccharomyces cerevisiae [2] is 0.658 ± 0.049.
Consider YPKGKHSQDSHV, for which the protein stability index in the data set with Saccharomyces cerevisiae [2] came to 0.656 ± 0.039.
For YPLLPSERDVKA, the protein stability index with Saccharomyces cerevisiae [2] came to 0.728 ± 0.023.
As for YPPPPPSPPSTV, the protein stability index with Saccharomyces cerevisiae [2] was 0.722 ± 0.027.
YPRNPSLSTSAS had a protein stability index with Saccharomyces cerevisiae [2] of 0.63 ± 0.16.
YPRPLSLSFLSL had a protein stability index in the data set with Saccharomyces cerevisiae [2] of 0.73 ± 0.048.
YPVLFLRSAPCK: the protein stability index in the data set on Saccharomyces cerevisiae [2] came out at 0.584 ± 0.031.
On to YQCESDLFLVGV, for which the protein stability index in the data set on Saccharomyces cerevisiae [2] is 0.642 ± 0.041.
The same measure, in the same setting: under YQCGRRVGSACD stands 0.645 ± 0.023; under YQCVQNNKGRSR, 0.67 ± 0.024.
The same measure, in the same setting: under YQLRRGDSSLTE stands 0.677 ± 0.085; under YRDTVYKVRYSN, 0.537 ± 0.015; under YRERSTIKITGN, 0.671 ± 0.054.
For YRGNLVTDGYGA, in the data set with Saccharomyces cerevisiae [2], the protein stability index came to 0.685 ± 0.019.
Sequence YRPFQAPPLVLF showed a protein stability index in the data set with Saccharomyces cerevisiae [2] of 0.6379 ± 0.0026.
The same measure, in the same setting: under YRPGGDRMTGFV stands 0.713 ± 0.065.
On the same count and under the same terms, under YRRGLGEYRTRS stands 0.688 ± 0.059; under YRSEEFSGESGW, 0.769 ± 0.11; under YRTPRSRHLDSP, 0.6938 ± 0.0068.
Turning to YRVGCCCFFALT, the protein stability index in the data set on Saccharomyces cerevisiae [2] amounted to 0.618 ± 0.016.
On the same count and under the same terms, under YRVSWSFLGCFQ stands 0.62 ± 0.071; under YSDFLICGIGSY, 0.775 ± 0.037.
YSDHFFQICGSF showed a protein stability index with Saccharomyces cerevisiae [2] of 0.726 ± 0.0065.
Consider YSGNPGVRGFHG, for which the protein stability index in the data set on Saccharomyces cerevisiae [2] turned out to be 0.69 ± 0.073.
Same read-out and setting: under YSGSKGVWTRWS stands 0.687 ± 0.02; under YSGSYIEPREIR, 0.626 ± 0.087; under YSSGILPLEMIA, 0.606 ± 0.0092.
Consider YSTFPPRIPRPP, for which the protein stability index in the data set with Saccharomyces cerevisiae [2] was found to be 0.524 ± 0.011.
On the same count and under the same terms, with YTESQVCLLSAY the figure was 0.509 ± 0.0088; with YTPALFLPVRPA, 0.715 ± 0.06; with YTQVSSRGINID, 0.734 ± 0.029.
The sequence YTRILRKKLINK showed a protein stability index with Saccharomyces cerevisiae [2] of 0.711 ± 0.11.
For the sequence YTSRLGRGILHV, the protein stability index in the data set with Saccharomyces cerevisiae [2] came out at 0.671 ± 0.031.
For the sequence YVEGSWSSPRCR, the protein stability index with Saccharomyces cerevisiae [2] came out at 0.675 ± 0.12.
YVKEEEKKKESK: in the data set with Saccharomyces cerevisiae [2], the protein stability index amounted to 0.681 ± 0.079.
With YVRLSTLCGSAY, the protein stability index with Saccharomyces cerevisiae [2] was determined as 0.58 ± 0.036.
Sequence YVSNKMHGSLLS gave a protein stability index in the data set with Saccharomyces cerevisiae [2] of 0.691 ± 0.03.
As to YVTITLGLASPT, the protein stability index in the data set on Saccharomyces cerevisiae [2] is 0.666 ± 0.026.
In the case of YVVPLGIPPFKD, the protein stability index in the data set with Saccharomyces cerevisiae [2] was determined as 0.6591 ± 0.00099.
In the case of YVWCINSARLVG, the protein stability index in the data set with Saccharomyces cerevisiae [2] came out at 0.587 ± 0.01.
The sequence YWSRIFEAATIA yielded a protein stability index with Saccharomyces cerevisiae [2] of 0.5436 ± 0.0024.
For YWSTNGRCLMVL, the protein stability index in the data set with Saccharomyces cerevisiae [2] came to 0.581 ± 0.017.
With YYAMGFEKSISS, in the data set with Saccharomyces cerevisiae [2], the protein stability index stood at 0.682 ± 0.031.
Same read-out and setting: under YYDWPGQRFSEE stands 0.67 ± 0.035; under YYRKATFSPMVQ, 0.684 ± 0.072.
On the same count and under the same terms, with YYSTPLARSRSP the figure was 0.831 ± 0.21.

For the origin of these results see the supplement of paper PMC10724198.
